Measured values from patent US20200199241A1 (Chugai, published 2020).
Numbering of substitutions follows the chain as printed. In names and notes the source's numbering stands.

T1: human FcγRIIb (human, UniProt P31994 43-217, limits assumed)
T1 construct: also called FcgRIIb; hFcgRIIb
T1 sequence: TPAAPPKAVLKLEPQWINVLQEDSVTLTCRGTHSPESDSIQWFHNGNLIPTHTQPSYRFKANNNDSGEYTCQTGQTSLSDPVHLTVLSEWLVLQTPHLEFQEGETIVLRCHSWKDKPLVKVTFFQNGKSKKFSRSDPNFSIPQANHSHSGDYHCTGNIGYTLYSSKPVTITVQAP

T2: human FcγRIIa(H) (human, UniProt P12318 36-217)
T2 construct: also called FcgRIIaH; hFcgRIIa(H)
T2 sequence: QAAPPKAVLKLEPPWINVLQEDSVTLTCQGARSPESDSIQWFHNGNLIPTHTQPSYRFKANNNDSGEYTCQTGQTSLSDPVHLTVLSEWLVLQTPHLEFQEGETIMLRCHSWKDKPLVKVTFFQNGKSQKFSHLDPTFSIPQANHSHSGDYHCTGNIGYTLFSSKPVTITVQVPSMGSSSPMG

T3: human FcγRIIa(R) (human, UniProt P12318 36-217)
T3 construct: also called FcgRIIaR; hFcgRIIa(R)
T3 chain: T2 sequence with H133R

B1: GpH7-B3 P329S/GpL16-k0 (antibody, human IgG1)
heavy: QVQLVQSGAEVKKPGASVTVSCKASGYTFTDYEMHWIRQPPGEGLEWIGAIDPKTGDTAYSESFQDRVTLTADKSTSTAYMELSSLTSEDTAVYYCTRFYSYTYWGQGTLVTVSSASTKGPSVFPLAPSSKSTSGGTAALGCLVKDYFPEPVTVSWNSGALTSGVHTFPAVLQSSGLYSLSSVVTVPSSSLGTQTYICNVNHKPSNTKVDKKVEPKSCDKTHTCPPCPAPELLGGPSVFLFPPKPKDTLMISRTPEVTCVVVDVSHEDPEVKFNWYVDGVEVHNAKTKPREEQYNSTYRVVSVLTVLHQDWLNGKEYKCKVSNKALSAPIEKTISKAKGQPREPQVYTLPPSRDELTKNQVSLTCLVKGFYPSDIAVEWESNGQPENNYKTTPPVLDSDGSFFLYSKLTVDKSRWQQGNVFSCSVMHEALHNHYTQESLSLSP
light: DIVMTQSPLSLPVTPGEPASISCQASESLVHSNRNTYLHWYLQKPGQSPQLLIYKVSNRFSGVPDRFSGSGSGTDFTLKISRVEAEDVGVYYCSQNTHVPPTFGQGTKVEIE
notes: B3 variant; copies: 2 + 2
B2: GpH7-B3 S324K/GpL16-k0 (antibody, human IgG1)
heavy: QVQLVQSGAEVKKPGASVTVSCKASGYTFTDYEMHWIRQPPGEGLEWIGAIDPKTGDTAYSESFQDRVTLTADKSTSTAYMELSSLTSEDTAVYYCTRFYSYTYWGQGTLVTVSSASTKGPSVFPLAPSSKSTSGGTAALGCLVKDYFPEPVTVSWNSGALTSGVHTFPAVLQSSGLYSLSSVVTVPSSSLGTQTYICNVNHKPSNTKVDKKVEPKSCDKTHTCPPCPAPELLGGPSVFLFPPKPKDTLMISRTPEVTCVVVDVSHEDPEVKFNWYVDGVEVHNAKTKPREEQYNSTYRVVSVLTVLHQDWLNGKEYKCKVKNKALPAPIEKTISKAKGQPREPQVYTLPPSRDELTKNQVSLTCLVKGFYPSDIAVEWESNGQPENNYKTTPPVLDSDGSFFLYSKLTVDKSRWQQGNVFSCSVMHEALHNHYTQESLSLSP
light: B1 light
notes: B3 variant; copies: 2 + 2
B3: GpH7-B3 S298Y/GpL16-k0 (antibody, human IgG1)
heavy: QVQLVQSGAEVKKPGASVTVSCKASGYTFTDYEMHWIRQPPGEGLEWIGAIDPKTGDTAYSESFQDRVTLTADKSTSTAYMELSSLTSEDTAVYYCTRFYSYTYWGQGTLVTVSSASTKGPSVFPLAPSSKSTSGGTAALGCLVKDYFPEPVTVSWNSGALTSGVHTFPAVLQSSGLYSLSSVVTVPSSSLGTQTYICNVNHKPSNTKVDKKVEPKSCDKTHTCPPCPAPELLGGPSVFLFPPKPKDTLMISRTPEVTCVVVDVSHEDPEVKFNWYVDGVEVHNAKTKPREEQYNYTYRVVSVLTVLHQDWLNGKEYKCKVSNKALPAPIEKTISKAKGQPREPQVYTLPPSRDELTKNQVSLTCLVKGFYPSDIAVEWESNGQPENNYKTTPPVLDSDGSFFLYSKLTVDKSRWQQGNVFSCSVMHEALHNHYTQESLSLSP
light: B1 light
notes: B3 variant; copies: 2 + 2
B4: GpH7-B3 Y300K/GpL16-k0 (antibody, human IgG1)
heavy: not shown
light: B1 light
notes: B3 variant; copies: 2 + 2
B5: GpH7-B3 P331K/GpL16-k0 (antibody, human IgG1)
heavy: not shown
light: B1 light
notes: B3 variant; copies: 2 + 2
B6: GpH7-B3 Y296G/GpL16-k0 (antibody, human IgG1)
heavy: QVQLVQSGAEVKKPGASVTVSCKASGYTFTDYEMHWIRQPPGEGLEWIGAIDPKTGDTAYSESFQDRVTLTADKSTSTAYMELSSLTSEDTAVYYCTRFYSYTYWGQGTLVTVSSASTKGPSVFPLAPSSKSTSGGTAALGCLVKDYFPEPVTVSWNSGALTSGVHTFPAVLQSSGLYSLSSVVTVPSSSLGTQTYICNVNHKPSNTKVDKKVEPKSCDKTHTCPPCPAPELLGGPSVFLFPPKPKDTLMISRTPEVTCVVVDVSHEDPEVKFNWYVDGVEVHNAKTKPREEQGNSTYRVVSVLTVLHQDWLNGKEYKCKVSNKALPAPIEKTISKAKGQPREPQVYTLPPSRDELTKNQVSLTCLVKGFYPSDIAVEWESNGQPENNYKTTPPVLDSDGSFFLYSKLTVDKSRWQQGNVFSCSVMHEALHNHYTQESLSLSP
light: B1 light
notes: B3 variant; copies: 2 + 2
B7: GpH7-B3 P329Y/GpL16-k0 (antibody, human IgG1)
heavy: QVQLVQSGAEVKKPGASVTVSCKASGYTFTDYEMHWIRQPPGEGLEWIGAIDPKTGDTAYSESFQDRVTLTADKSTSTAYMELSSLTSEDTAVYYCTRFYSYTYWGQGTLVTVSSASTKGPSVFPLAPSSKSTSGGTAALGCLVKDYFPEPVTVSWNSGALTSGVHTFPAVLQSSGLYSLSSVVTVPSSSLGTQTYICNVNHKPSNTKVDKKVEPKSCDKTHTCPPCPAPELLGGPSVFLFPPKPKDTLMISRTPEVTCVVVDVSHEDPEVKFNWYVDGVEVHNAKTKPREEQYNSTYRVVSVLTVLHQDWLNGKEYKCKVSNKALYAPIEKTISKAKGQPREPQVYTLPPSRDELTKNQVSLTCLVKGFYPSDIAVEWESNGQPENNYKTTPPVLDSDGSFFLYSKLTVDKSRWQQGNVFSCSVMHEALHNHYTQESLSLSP
light: B1 light
notes: B3 variant; copies: 2 + 2
B8: GpH7-B3 Q295D/GpL16-k0 (antibody, human IgG1)
heavy: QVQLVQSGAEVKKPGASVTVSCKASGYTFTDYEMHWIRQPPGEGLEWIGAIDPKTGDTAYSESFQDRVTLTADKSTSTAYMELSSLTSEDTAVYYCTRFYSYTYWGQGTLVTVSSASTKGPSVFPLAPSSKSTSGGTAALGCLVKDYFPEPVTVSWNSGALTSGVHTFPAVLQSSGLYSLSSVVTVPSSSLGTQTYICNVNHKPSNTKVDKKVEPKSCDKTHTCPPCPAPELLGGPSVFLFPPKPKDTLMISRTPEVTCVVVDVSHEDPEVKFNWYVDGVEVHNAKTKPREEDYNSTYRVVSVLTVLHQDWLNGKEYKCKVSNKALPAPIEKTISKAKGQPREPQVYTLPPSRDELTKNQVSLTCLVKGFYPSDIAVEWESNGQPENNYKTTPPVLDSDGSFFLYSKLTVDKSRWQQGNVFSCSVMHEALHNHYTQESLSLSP
light: B1 light
notes: B3 variant; copies: 2 + 2
B9: GpH7-B3 Q295S/GpL16-k0 (antibody, human IgG1)
heavy: not shown
light: B1 light
notes: B3 variant; copies: 2 + 2
B10: GpH7-B3 Q295Y/GpL16-k0 (antibody, human IgG1)
heavy: not shown
light: B1 light
notes: B3 variant; copies: 2 + 2
B11: GpH7-B3 P329V/GpL16-k0 (antibody, human IgG1)
heavy: not shown
light: B1 light
notes: B3 variant; copies: 2 + 2
B12: GpH7-B3 S298P/GpL16-k0 (antibody, human IgG1)
heavy: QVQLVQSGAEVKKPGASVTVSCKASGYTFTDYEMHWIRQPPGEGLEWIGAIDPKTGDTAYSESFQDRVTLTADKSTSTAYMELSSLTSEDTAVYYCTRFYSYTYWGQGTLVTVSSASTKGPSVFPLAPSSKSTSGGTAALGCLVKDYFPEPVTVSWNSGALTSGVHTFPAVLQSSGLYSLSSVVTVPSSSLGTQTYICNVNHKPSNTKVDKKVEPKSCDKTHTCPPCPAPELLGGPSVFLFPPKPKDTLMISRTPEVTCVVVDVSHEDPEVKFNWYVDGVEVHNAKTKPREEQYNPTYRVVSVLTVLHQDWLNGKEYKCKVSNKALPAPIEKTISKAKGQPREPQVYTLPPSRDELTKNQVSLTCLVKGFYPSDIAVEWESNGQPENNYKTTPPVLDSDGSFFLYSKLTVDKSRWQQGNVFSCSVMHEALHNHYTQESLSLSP
light: B1 light
notes: B3 variant; copies: 2 + 2
B13: GpH7-B3 Q295H/GpL16-k0 (antibody, human IgG1)
heavy: not shown
light: B1 light
notes: B3 variant; copies: 2 + 2
B14: GpH7-B3 P329T/GpL16-k0 (antibody, human IgG1)
heavy: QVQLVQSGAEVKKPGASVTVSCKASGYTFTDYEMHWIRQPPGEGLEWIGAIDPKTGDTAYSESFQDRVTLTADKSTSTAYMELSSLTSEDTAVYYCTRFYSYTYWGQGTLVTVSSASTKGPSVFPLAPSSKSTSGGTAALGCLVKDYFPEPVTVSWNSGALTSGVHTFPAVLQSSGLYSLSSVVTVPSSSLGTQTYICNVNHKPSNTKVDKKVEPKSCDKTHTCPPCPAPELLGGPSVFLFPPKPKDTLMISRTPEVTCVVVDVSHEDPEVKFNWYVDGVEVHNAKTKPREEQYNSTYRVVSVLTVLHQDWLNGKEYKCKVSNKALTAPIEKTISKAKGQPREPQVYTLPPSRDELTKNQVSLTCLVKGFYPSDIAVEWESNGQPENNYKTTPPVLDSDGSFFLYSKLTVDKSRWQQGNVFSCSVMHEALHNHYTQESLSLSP
light: B1 light
notes: B3 variant; copies: 2 + 2
B15: GpH7-B3 P331G/GpL16-k0 (antibody, human IgG1)
heavy: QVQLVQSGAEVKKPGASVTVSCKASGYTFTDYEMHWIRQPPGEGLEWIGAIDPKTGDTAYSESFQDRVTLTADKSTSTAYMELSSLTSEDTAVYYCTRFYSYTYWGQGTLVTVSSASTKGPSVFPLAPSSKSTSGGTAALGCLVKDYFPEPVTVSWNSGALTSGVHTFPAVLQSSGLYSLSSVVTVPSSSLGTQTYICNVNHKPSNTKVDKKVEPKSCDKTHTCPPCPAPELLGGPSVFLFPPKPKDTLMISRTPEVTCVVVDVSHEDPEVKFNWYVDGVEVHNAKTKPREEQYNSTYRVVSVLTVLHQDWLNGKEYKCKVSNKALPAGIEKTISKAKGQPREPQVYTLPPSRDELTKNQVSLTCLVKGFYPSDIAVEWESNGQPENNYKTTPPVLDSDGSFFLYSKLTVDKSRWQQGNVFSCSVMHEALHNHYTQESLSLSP
light: B1 light
notes: B3 variant; copies: 2 + 2
B16: GpH7-B3 Y300R/GpL16-k0 (antibody, human IgG1)
heavy: not shown
light: B1 light
notes: B3 variant; copies: 2 + 2
B17: GpH7-B3 Y296P/GpL16-k0 (antibody, human IgG1)
heavy: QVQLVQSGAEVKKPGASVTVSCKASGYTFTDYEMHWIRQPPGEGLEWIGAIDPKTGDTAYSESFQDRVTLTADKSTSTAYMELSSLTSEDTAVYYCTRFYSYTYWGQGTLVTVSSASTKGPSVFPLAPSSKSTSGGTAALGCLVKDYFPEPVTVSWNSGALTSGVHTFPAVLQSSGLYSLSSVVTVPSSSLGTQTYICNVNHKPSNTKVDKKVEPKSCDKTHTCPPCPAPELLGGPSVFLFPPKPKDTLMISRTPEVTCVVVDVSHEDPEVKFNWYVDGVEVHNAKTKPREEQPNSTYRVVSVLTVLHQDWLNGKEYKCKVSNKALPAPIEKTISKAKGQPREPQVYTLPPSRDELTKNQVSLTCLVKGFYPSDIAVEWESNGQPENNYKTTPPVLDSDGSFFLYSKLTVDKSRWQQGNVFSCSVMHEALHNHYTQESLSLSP
light: B1 light
notes: B3 variant; copies: 2 + 2

Target: T1, human FcγRIIb
Experiment: SPR, captured antibody;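 further: antibody captured on a sensor chip, Fcγ receptor flowed over at 25 °C, receptor binding normalized to the captured antibody amount and expressed relative to the reference antibody ×100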

relative binding activity | Binder
-1 % of GpH7-B3/GpL16-k0 | B1
64 % of GpH7-B3/GpL16-k0 | B2
23 % of GpH7-B3/GpL16-k0 | B3
45 % of GpH7-B3/GpL16-k0 | B4
63 % of GpH7-B3/GpL16-k0 | B5
58 % of GpH7-B3/GpL16-k0 | B6
-3 % of GpH7-B3/GpL16-k0 | B7
40 % of GpH7-B3/GpL16-k0 | B8
40 % of GpH7-B3/GpL16-k0 | B9
24 % of GpH7-B3/GpL16-k0 | B10
13 % of GpH7-B3/GpL16-k0 | B11
-1 % of GpH7-B3/GpL16-k0 | B12
29 % of GpH7-B3/GpL16-k0 | B13
-4 % of GpH7-B3/GpL16-k0 | B14
8 % of GpH7-B3/GpL16-k0 | B15
25 % of GpH7-B3/GpL16-k0 | B16
7 % of GpH7-B3/GpL16-k0 | B17

Target: T4, human FcγRIa (human, UniProt P12314 16-292, limits assumed)
T4 construct: also called FcgRIa; hFcgRIa
Experiment: SPR, captured antibody;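 further: antibody captured on a sensor chip, Fcγ receptor flowed over at 25 °C, receptor binding normalized to the captured antibody amount and expressed relative to the reference antibody ×100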

T4 sequence (P12314 16-292 limits assumed): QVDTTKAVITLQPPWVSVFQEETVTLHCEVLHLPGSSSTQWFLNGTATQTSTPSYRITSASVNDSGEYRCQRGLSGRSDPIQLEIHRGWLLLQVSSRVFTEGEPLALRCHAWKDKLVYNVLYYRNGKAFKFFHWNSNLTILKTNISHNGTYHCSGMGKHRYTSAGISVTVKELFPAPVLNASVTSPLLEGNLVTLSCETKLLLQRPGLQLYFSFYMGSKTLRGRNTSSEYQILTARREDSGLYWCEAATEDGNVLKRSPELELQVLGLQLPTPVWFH

relative binding activity | Binder
60 % of GpH7-B3/GpL16-k0 | B1
94 % of GpH7-B3/GpL16-k0 | B2
100 % of GpH7-B3/GpL16-k0 | B3
95 % of GpH7-B3/GpL16-k0 | B4
98 % of GpH7-B3/GpL16-k0 | B5
100 % of GpH7-B3/GpL16-k0 | B6
76 % of GpH7-B3/GpL16-k0 | B7
95 % of GpH7-B3/GpL16-k0 | B8
100 % of GpH7-B3/GpL16-k0 | B9
95 % of GpH7-B3/GpL16-k0 | B10
95 % of GpH7-B3/GpL16-k0 | B11
15 % of GpH7-B3/GpL16-k0 | B12
97 % of GpH7-B3/GpL16-k0 | B13
43 % of GpH7-B3/GpL16-k0 | B14
88 % of GpH7-B3/GpL16-k0 | B15
91 % of GpH7-B3/GpL16-k0 | B16
45 % of GpH7-B3/GpL16-k0 | B17

Target: T2, human FcγRIIa(H)
Experiment: SPR, captured antibody;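 further: antibody captured on a sensor chip, Fcγ receptor flowed over at 25 °C, receptor binding normalized to the captured antibody amount and expressed relative to the reference antibody ×100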

relative binding activity | Binder
1 % of GpH7-B3/GpL16-k0 | B1
97 % of GpH7-B3/GpL16-k0 | B2
35 % of GpH7-B3/GpL16-k0 | B3
56 % of GpH7-B3/GpL16-k0 | B4
58 % of GpH7-B3/GpL16-k0 | B5
83 % of GpH7-B3/GpL16-k0 | B6
0 % of GpH7-B3/GpL16-k0 | B7
37 % of GpH7-B3/GpL16-k0 | B8
67 % of GpH7-B3/GpL16-k0 | B9
70 % of GpH7-B3/GpL16-k0 | B10
28 % of GpH7-B3/GpL16-k0 | B11
0 % of GpH7-B3/GpL16-k0 | B12
78 % of GpH7-B3/GpL16-k0 | B13
0 % of GpH7-B3/GpL16-k0 | B14
9 % of GpH7-B3/GpL16-k0 | B15
34 % of GpH7-B3/GpL16-k0 | B16
8 % of GpH7-B3/GpL16-k0 | B17

Target: T3, human FcγRIIa(R)
Experiment: SPR, captured antibody;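 further: antibody captured on a sensor chip, Fcγ receptor flowed over at 25 °C, receptor binding normalized to the captured antibody amount and expressed relative to the reference antibody ×100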

relative binding activity | Binder
0 % of GpH7-B3/GpL16-k0 | B1
75 % of GpH7-B3/GpL16-k0 | B2
33 % of GpH7-B3/GpL16-k0 | B3
59 % of GpH7-B3/GpL16-k0 | B4
72 % of GpH7-B3/GpL16-k0 | B5
77 % of GpH7-B3/GpL16-k0 | B6
-1 % of GpH7-B3/GpL16-k0 | B7
43 % of GpH7-B3/GpL16-k0 | B8
52 % of GpH7-B3/GpL16-k0 | B9
38 % of GpH7-B3/GpL16-k0 | B10
24 % of GpH7-B3/GpL16-k0 | B11
0 % of GpH7-B3/GpL16-k0 | B12
45 % of GpH7-B3/GpL16-k0 | B13
-2 % of GpH7-B3/GpL16-k0 | B14
13 % of GpH7-B3/GpL16-k0 | B15
38 % of GpH7-B3/GpL16-k0 | B16
10 % of GpH7-B3/GpL16-k0 | B17
